Laboratory results from patent publication US20250388637A1.

Target: Recombinant human PDGF-B (human) (UniProt P01127)

- inhibition of PDGF-B stimulated PDGFR-β phosphorylation, BHK-21/PDGFR-β cells: 16%
Substance: MBP-GCN4-Prodomain
